Source: paper PMC4996978 (2016)

How the values were obtained:
AtUBC8 [1] = molecular target: T1, AtUBC8 (Arabidopsis thaliana, UniProt P35131 1-148); test: ITC
AtUBC8 [2] = molecular target: T1, AtUBC8; test: ITC; remark: listed apart in the source

T1 sequence (P35131 whole entry): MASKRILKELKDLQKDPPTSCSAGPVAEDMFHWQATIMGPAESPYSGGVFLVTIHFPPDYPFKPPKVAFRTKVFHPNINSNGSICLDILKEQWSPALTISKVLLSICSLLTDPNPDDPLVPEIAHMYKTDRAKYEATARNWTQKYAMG

B1: AtMUB3 (natural protein)
chain: MPEEESIDIKFRLYDGSDIGPFRYSAASTVDFLKQRVVSDWPKGKTVVPKGINEVKLISSGKILENNKTVGQCKTPFGDIAGGVIVMHVVVQPSLAKSKTEKKVDKAPKAVICTCTIL
B1 was tested, and the Ka (AtUBC8 [1]) was 3.53e+06 M⁻¹ and the Kd (AtUBC8 [2]) was 283 nM.
